According to the RNAGym collection of RNA variant scans (doi:10.7554/elife.90254):

B1: LINE1-full (parent)
chain: UACGUAGGUGGUUUUCCCCUGAUAGUGCUAAGGGGGCCUGGAAGUUUGGACUGGGCAGAGCUCAACACAGCGUGGCAAAGUGGCUGUGGCUAGACUGCCUCUCUGGAUUCCUCGUCACUCAGCAGGGCAUCUCUGAGAGAAAUGCC

Variants of: B1
Assay: self-cleavage, relative activity (ratio to wild type); higher = more cleavage; in vitro, sequencing; the parent is a self-cleaving ribozyme

Variant	self-cleavage
U62A G127U	0.02
U62C G126A	0.04
C61U A65G	0.06
U62C A140G	0.04
C63U A129U	0.54
U62C U100A	0.05
U62C A138G	0.06
U62A C116A	0.05
U62G C113U	0.1
C63G U130C	0.34
C63U A136G	0.34
U62C C120U	0.06
C61U U104A	0.02
U62G A65U	0.16
U62C A107G	0.06
U62A U81G	0.02
C63A G97A	0.01
U62A C131U	0.02
C61U U73C	0.02
U62C C101U	0.07
U62C C101A	0.04
U62A A121G	0.06
C61U A67G	1.08
U62G A141G	0.08

Variant	self-cleavage
U62C A77C	0.05
C61U U115C	0.02
C63U A124G	0.09
U62A U73A	0.04
U62C A124G	0.08
U62A A67G	0.07
U62A A67U	0.06
C63A A142U	0.05
C63A A142G	0.06
U62G U115C	0
U62A U143A	0.04
U62C G97A	0.03
U62C U81C	0.05
U62C U81A	0.04
U62C U132C	0.06
C61U A94G	0.06
U62C A129C	0.19
C61G U100C	0.06
U62C U73C	0.07
U62C A65G	0.1
U62C G82A	0.04
U62C G139A	0.03
U62C U96A	0.03
U62C U96G	0

Variant	self-cleavage
C61U U134G	0
U62G A78G	0.06
U62C U112A	0.05
U62C U112G	0
U62A U112A	0.05
U62A U112C	0.04
U62A C133U	0.04
U62C G106A	0.08
U62G C84G	0.49
C63A A77G	0.04
U62A A140G	0.04
U62A A140U	0.03
U62C C133A	0.06
U62A U119C	0.03
C61U A117G	0.05
U62C C71U	0.05
C63U A77G	0.62
U62A U132C	0.06
U62C A141G	0.03
U62C A121C	0.15
U62C G70A	0.01
U62C A79U	0.03
U62C A79G	0.06
U62C C63A	0.01

Variant	self-cleavage
U62C C63U	0.07
C61U G105A	0.02
U62C U102C	0.06
U62C G125A	0.06
U62G U104C	0.08
C61U U130C	0.05
U62C U108C	0.05
U62C U108G	0
U62C A117G	0.1
U62C A117C	0.03
U62C A117U	0.03
C61U U91C	0.03
C61U A129U	0.02
C63A U119C	0.02
C61U U85A	0.03
U62C C99A	0.03
C63A U100C	0.04
C63A U87C	0.06
C63A U87A	0.04
U62G A129G	0.15
U62C A69G	0.06
U62G A69U	0.05
C61U U108C	0.01
C61U U119C	0.05

Variant	self-cleavage
U62C A78C	0
U62C A78G	0.05
U62C A78U	0.04
C61U C76U	0.04
U62A U91C	0.04
U62A U100C	0.23
U62A U100A	0.05
U62A A77G	0.07
U62A A77U	0.01
U62C U91C	0.04
U62C U91A	0.08
C63A A64G	0.02
U62A U87A	0.04
U62C C131A	0.03
U62C C111U	0.02
U62A A107G	0.06
C63G	0.09
C63A	0.06
C63U	0.36
C63U A94G	0.06
U62C C66U	0.03
U62C C103U	0.03
U62C U143G	0.08
U62G	0.05

Variant	self-cleavage
U62A	0.04
U62C	0.05
C61U A77G	0.06
U62A U102G	0.08
U62A U102A	0.01
U62A U102C	0.01
U62A U108C	0.04
C63A A117G	0.08
U62C U85C	0.05
U62C U85A	0.03
U62A U130C	0.05
U62C A67U	0.05
U62C A67G	0.09
U62A U134C	0.05
U62A U134G	0.1
U62C C128A	0.05
C61U U96C	0.03
U62C A92G	0.04
U62C A92U	0.04
U62C U130A	0.07
U62C A136G	0.06
C63A A124U	0.03
U62C G93A	0.06
U62C G105A	0.03

Variant	self-cleavage
U62G G82U	0.03
U62A U96C	0.06
U62A U96A	0.04
C61U A124U	0.03
C61U A124G	0.04
U62C G72U	0.03
U62C G72C	0.03
U62G A138C	0.09
C61U U102C	0.03
U62A U109C	0.05
U62C A64G	0.08
U62A C71U	0
U62A C71G	0.05
U62C A94U	0.08
C63A U108C	0.08
U62A A79G	0.04
U62C C113U	0
C61G U85C	0.15
U62A A94G	0.04
C63U A140G	0.25
U62A A64G	0.05
U62A A64C	0.11
U62A A141U	0.01
